Test results as given in US20250313626A1 (HARBOUR BIOMED SHANGHAI, published 2025).
Read-outs that look alike come from different tables or passages of the source.

Tests used:
[1] = target: T1, CD200R1a on PathHunter Jurkat CD200R1a signaling cells (Eurofins DiscoverX, 93-1136C19) (human, UniProt Q8TD46 25-348); assay: cell-based or functional assay
T1 sequence: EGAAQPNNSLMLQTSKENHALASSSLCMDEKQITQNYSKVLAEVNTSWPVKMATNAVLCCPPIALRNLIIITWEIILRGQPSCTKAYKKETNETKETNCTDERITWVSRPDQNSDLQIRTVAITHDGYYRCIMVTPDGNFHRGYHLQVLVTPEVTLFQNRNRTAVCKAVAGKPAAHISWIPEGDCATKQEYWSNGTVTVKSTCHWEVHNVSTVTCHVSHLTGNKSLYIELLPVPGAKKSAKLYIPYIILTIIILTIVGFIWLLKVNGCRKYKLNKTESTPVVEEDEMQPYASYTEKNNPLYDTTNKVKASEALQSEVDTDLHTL

[2] = target: T1, CD200R1a on PathHunter Jurkat CD200R1a …; assay: cell-based or functional assay; remark: listed apart in the source

B1: PR007973 (antibody, human IgG1, kappa, V domains shown)
VH: QVQLVESGGGVVQPGRSLRLSCAASGFTFSSYGFHWVRQAPGKGLEWLGIIWSDASNKYYADSVKGRFTISRDNSKNTLYLQMNSLRAEDTAVYYCARDRIVGEGFDYWGQGTLVTVSS
VL: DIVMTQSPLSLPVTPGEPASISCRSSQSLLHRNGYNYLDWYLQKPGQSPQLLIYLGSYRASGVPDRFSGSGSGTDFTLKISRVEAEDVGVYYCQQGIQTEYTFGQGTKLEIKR
notes: PTM variant of PR006839 (human IgG1)
- IC50 of the inhibition of CD200-induced PathHunter Jurkat CD200R1a luminescence (CHOK1/hCD200 cells as CD200 source) [1]: 0.706 nM

B2: PR007221 (antibody, human IgG1, kappa)
heavy: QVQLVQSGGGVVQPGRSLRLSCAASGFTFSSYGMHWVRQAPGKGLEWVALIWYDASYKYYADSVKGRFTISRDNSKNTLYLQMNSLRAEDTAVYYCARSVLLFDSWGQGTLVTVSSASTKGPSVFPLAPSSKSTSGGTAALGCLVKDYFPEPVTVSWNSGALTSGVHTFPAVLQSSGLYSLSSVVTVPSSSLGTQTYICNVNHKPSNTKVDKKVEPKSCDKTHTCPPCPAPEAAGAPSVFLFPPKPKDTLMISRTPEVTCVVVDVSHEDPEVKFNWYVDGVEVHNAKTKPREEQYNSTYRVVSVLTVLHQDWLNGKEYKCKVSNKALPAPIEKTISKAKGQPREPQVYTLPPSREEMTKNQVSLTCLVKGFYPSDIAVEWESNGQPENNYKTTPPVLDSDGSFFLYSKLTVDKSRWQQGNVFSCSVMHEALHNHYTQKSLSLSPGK
light: DIQLTQSPPSLSASVGDRVTITCRASQSISSYLNWFQQKAGKAPKLLISATSNLQSGVPSRFSGSGSGTDFTLTISSLQPEDLATYYCQQTLSSPYTFGQGTKVEIKRTVAAPSVFIFPPSDEQLKSGTASVVCLLNNFYPREAKVQWKVDNALQSGNSQESVTEQDSKDSTYSLSSTLTLSKADYEKHKVYACEVTHQGLSSPVTKSFNRGEC
notes: PTM variant of PR006895 (human IgG1)
- IC50 of the inhibition of CD200-induced PathHunter Jurkat CD200R1a luminescence (CHOK1/hCD200 cells as CD200 source) [2]: 1.27 nM
